Beta-galactosidase activity, liquid media assay (yeast two-hybrid) data for 2 substances are collected here from USRE43497.

Holding throughout (assay): cell-based or functional assay
For assay [1], the target named is Jab1-AD (GAL4 activation domain fusion with human p38^Jab1 amino acids 20-335) (human) (UniProt Q92905).
For assay [2], the target named is GAL4-AD (UniProt P04386).
In assay [3] the target is SV40-AD.

Sequence of GAL4-AD (P04386 768-881 limits assumed): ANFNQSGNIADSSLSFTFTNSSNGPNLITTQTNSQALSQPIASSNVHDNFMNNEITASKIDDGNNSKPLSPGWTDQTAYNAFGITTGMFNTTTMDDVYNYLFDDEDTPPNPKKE
Sequence of Jab1-AD (GAL4 activation domain fusion with human p38^Jab1 amino acids 20-335) (human) (Q92905 20-334 limits assumed): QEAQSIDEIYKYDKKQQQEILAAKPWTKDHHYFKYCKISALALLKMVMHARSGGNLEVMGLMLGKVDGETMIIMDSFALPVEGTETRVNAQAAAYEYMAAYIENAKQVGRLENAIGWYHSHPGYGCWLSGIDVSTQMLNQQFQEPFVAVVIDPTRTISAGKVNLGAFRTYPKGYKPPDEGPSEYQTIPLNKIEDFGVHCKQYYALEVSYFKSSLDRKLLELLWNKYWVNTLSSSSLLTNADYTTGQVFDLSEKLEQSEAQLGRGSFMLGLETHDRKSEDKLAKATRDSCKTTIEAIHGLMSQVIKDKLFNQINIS

For the substance GAL4-BD (from UniProt P04386 1-147), the beta-galactosidase activity, liquid media assay (yeast two-hybrid) in assay [1] is 0.3 Miller units; in assay [2], 0.1 Miller units. With p53-BD, in assay [3], the beta-galactosidase activity, liquid media assay (yeast two-hybrid) worked out at 99 Miller units.
